{"source": "patent US8173604", "about": "(ALBERT EINSTEIN COLLEGE OF MEDICINE OF YESHIVA UNIVERSITY, dated 2012)", "key": {"[1]": {"target": "cellular cyclin A (endogenous, U2OS cells; associated with Cdk2) (human, UniProt P20248 1-432)", "test": "cell-based or functional assay"}, "[2]": {"target": "T1, insect cell-produced and purified GST-cyclin A/Cdk2 (kinase reactions, ~3 nM) (UniProt P20248 1-432; P24941 1-298)", "test": "cell-based or functional assay"}, "[3]": {"target": "T1, insect cell-produced and purified …", "test": "kinase inhibition: purified proteins, ~3 nM GST-cyclin A/Cdk2, Rb-C phosphorylation, non-linear least squares (FIG. 7F)"}, "[4]": {"target": "cyclin D1/Cdk4 (transfected 293T cell extracts) (UniProt P24385 1-295; P11802 1-303)", "sequence (P24385 whole entry, chain 1 of 2)": "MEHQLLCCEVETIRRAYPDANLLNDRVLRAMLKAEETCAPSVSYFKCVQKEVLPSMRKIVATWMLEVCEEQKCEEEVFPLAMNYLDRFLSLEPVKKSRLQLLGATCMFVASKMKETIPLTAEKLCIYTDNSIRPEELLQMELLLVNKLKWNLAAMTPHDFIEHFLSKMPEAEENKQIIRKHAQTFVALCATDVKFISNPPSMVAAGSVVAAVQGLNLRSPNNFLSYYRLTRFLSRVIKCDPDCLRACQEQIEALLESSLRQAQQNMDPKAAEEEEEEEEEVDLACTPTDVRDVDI", "sequence (P11802 whole entry, chain 2 of 2)": "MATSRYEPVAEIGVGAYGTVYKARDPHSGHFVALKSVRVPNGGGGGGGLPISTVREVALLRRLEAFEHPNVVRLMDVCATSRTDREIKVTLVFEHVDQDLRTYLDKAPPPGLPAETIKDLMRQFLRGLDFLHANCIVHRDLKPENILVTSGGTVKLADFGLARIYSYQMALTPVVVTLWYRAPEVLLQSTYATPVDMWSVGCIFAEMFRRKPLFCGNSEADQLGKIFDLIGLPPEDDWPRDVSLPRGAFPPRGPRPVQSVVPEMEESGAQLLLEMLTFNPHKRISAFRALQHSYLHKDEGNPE", "test": "GST pull-down with transfected 293T extracts (FIG. 4E)"}, "[5]": {"target": "T2, cyclin A 309-432 fragment (C-terminal cyclin-fold and the C-terminus) (UniProt P20248 309-432)", "T2 construct": "In transfected 293T cell extract; not shown: myc tag", "test": "GST pull-down with transfected 293T extracts (FIG. 4C)"}, "[6]": {"target": "Cdk2 alone (singly transfected 293T cell extract) (UniProt P24941 1-298)", "test": "GST pull-down with singly transfected 293T extracts (FIG. 4A)"}, "[7]": {"target": "myc-cyclin A/Cdk2 (293T cell extracts transfected with myc-cyclin A and Cdk2) (UniProt P20248 1-432; P24941 1-298)", "test": "GST pull-down with myc-cyclin A/Cdk2 transfected 293T extracts (FIG. 3C)"}, "[8]": {"target": "T3, myc tagged cyclin A (expressed alone or cotransfected in 293T cells) (UniProt P20248 1-432)", "T3 construct": "domain: full-length; also called myc-cyclin A; cyclin A alone; not shown: myc tag", "test": "cotransfection, IP-Western in 293T cells (FIG. 1A)"}, "[9]": {"target": "T3, myc tagged cyclin A (expressed alone or …)", "test": "IP-Western with transfected 293T cell extracts (FIG. 1E)"}, "[10]": {"target": "T4, Skp1, Cul-1 and myc-Roc1 (SCF subunits co-expressed with flag-Skp2 in 293T cells) (UniProt P63208 1-163; Q13616 1-776; P62877 1-108)", "T4 construct": "The three other subunits of the SCF complex, co-immunoprecipitated via the flag tag on Skp2; also called Skp1-Cul1-Roc1; SCF^Skp2Roc1 complex subunits; not shown: myc tag", "T4 sequence (P63208 whole entry, chain 1 of 3)": "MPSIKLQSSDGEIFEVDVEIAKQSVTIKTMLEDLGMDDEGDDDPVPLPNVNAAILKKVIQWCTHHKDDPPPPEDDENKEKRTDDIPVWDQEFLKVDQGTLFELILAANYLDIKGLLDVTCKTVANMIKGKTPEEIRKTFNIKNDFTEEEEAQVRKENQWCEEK", "T4 sequence (Q13616 whole entry, chain 2 of 3)": "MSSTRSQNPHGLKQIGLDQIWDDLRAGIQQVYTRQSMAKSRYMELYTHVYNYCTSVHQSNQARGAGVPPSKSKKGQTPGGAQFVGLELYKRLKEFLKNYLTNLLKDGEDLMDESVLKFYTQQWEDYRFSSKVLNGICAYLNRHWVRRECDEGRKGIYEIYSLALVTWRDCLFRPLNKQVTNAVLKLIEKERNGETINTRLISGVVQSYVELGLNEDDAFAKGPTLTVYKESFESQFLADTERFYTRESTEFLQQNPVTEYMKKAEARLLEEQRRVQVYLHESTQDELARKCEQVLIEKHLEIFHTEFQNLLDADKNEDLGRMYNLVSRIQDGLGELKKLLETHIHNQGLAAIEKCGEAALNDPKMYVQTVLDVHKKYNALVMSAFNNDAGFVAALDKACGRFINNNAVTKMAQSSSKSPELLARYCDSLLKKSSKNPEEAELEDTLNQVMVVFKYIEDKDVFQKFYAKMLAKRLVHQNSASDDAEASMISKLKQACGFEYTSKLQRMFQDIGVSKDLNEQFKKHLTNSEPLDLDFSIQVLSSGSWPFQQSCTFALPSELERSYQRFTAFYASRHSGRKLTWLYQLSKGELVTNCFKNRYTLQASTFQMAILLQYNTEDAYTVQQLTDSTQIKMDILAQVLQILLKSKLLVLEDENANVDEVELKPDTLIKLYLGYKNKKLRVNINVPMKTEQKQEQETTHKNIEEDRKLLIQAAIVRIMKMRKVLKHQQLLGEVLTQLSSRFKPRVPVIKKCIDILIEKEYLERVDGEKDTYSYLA", "T4 sequence (P62877 whole entry, chain 3 of 3)": "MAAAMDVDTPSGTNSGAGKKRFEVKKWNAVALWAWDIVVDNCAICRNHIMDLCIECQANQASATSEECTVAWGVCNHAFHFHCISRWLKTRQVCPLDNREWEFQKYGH", "test": "co-expression in 293T cells, anti-flag IP-Western (FIG. 2A)"}}, "data": [{"binder": "YGRKKRRQRRRGKTSELLSGMGVSALEKEE", "note": "[TAT-4060 peptide (HIV TAT domain fused to the 4060 peptide with a glycine linker)]", "values": [{"measurement": "IC50 of U2OS cell killing (MTS assay, 24 hours)", "setting": "[1]", "result": 35, "unit": "µM"}]}, {"binder": "Skp2N (eluted, GST cleaved off by thrombin) (other, also called eluted and GST cleaved Skp2N; Skp2 N-terminus) MHVFKTPGPADAMHRKHLQEIPDLSSNVATSFTWGWDSSKTSELLSGMGVSALEKEEPDSENIPQELLSNLGHPESPPRKRLKSKGSDKDFVIVRRPKLN", "values": [{"measurement": "Ki of p27 for cyclin A/Cdk2 kinase activity (Rb-C phosphorylation) in the presence of 80 nM of Skp2N", "setting": "[2]", "result": "~80", "unit": "nM"}, {"measurement": "Ki", "setting": "[3]", "result": "~520", "unit": "nM"}]}, {"binder": "GST-Skp2N (Skp2 N-terminus cloned into pGEX-2T) (other, not shown: glutathione S-transferase (GST) moiety of vector pGEX-2T, N-terminal fusion partner) MHVFKTPGPADAMHRKHLQEIPDLSSNVATSFTWGWDSSKTSELLSGMGVSALEKEEPDSENIPQELLSNLGHPESPPRKRLKSKGSDKDFVIVRRPKLN", "values": [{"measurement": "binding result", "setting": "[4]", "result": "no binding"}, {"measurement": "binding result", "setting": "[5]", "result": "no binding"}, {"measurement": "binding result", "setting": "[6]", "result": "no binding"}]}, {"binder": "GST-Skp2N-AAA53 (other, Residue 52 is already alanine; not shown: glutathione S-transferase (GST) moiety of vector pGEX-2T, N-terminal fusion partner) MHVFKTPGPADAMHRKHLQEIPDLSSNVATSFTWGWDSSKTSELLSGMGVAAAEKEEPDSENIPQELLSNLGHPESPPRKRLKSKGSDKDFVIVRRPKLN", "values": [{"measurement": "binding result", "setting": "[7]", "result": "no binding"}]}, {"binder": "GST-Skp2N-AA45 (other, not shown: glutathione S-transferase (GST) moiety of vector pGEX-2T, N-terminal fusion partner) MHVFKTPGPADAMHRKHLQEIPDLSSNVATSFTWGWDSSKTSEAASGMGVSALEKEEPDSENIPQELLSNLGHPESPPRKRLKSKGSDKDFVIVRRPKLN", "values": [{"measurement": "binding result", "setting": "[7]", "result": "no binding"}]}, {"binder": "YGRKKRRQRRRGPVKRRLDL", "note": "[TAT-LDL peptide (TAT fused to the E2F1-derived LDL peptide)]", "values": [{"measurement": "IC50 of U2OS cell killing (MTS assay, 24 hours)", "setting": "[1]", "result": 7.5, "unit": "µM"}, {"measurement": "in vitro cyclin A/Cdk2 kinase activity towards GST-Rb-C", "setting": "[2]", "result": 10, "unit": "fold"}]}, {"binder": "Skp2LRR (C-terminal fragment of Skp2 divided at residue 150) (other, also called LRR fragment) TLDLTGKNLHPDVTGRLLSQGVIAFRCPRSFMDQPLAEHFSPFRVQDMDLSNSVIEVSTLHGILSQCSKLQNLSLELRLSDPIVNTLAKNSNLVRLNLPGCPGFPKFPLQTFLSSCPRLDELNLSWCFNFTEKHVQVAVAHVSETMTQLNLSGYRKNLQKSDLSTLVRRCPNLVHLDLSNSVMLKNDCFQEFSQLNYLQHLSLSRCYDIIPETLLELGEIPTLKTLQVFGIVPDGTLQLLKEALPHLQINCSHFTTIARPTIGNKKNQEIWGIKCRLTLQKPSCL", "values": [{"measurement": "binding result", "setting": "[8]", "result": "no binding"}]}, {"binder": "Skp2NF (N-terminal fragment of Skp2 divided at residue 150) (other, also called NF fragment) MHVFKTPGPADAMHRKHLQEIPDLSSNVATSFTWGWDSSKTSELLSGMGVSALEKEEPDSENIPQELLSNLGHPESPPRKRLKSKGSDKDFVIVRRPKLNRENFPGVSWDSLPDELLLGIFSCLCLPELLKVSGVCKRWYRLASDESLWQ", "values": [{"measurement": "binding result", "setting": "[8]", "result": "binds"}]}, {"binder": "Skp2AAAA (full-length Skp2 with the four conserved residues of the 40-60 sequence mutated to alanine, flag tagged) (other, also called Skp2AAAA mutant; flag tagged Skp2AAAA; not shown: flag tag) MHVFKTPGPADAMHRKHLQEIPDLSSNVATSFTWGWDSSKTSEAASGMGVAAAEKEEPDSENIPQELLSNLGHPESPPRKRLKSKGSDKDFVIVRRPKLNRENFPGVSWDSLPDELLLGIFSCLCLPELLKVSGVCKRWYRLASDESLWQTLDLTGKNLHPDVTGRLLSQGVIAFRCPRSFMDQPLAEHFSPFRVQDMDLSNSVIEVSTLHGILSQCSKLQNLSLELRLSDPIVNTLAKNSNLVRLNLPGCPGFPKFPLQTFLSSCPRLDELNLSWCFNFTEKHVQVAVAHVSETMTQLNLSGYRKNLQKSDLSTLVRRCPNLVHLDLSNSVMLKNDCFQEFSQLNYLQHLSLSRCYDIIPETLLELGEIPTLKTLQVFGIVPDGTLQLLKEALPHLQINCSHFTTIARPTIGNKKNQEIWGIKCRLTLQKPSCL", "values": [{"measurement": "binding result", "setting": "[9]", "result": "no binding"}, {"measurement": "binding result", "setting": "[10]", "result": "binds"}]}]}
